Measured values: patent US20130096276A1

Target: human immunoglobulin G drug separated from human plasma (Gammagard, Baxter) (human)

Substance	Ka [M⁻¹]
C-G29A/D36R.5d (designed binder)	3e+08
C-G29A/K35R/D37E.5d (designed binder)	6.5e+07
